Blank lines part the entries; values can stand above or below the compound they belong to.
Key:
[1] = test system: HeLa cells transfected with the apoptosis Rluc:Caspase:EYFP sensor; test: apoptosis induction BRET assay, Rluc:Caspase:EYFP sensor; assay type: cell-based; conditions: 1 μM staurosporine, 5 hours, 37° C.; coelenterazine h; ratios decreased
Description: pCEP4/Rluc-EYFP and pCEP4/Rluc-caspase-EYFP DNAs were transfected into HeLa cell using LipofectAMINE (BRL/Gibco-Life technologies) in 100 mm dishes as described in the manufacturer's protocol. 24 hours post-transfection, transfected cells were harvested and distributed into 96-well microtiterplates (white Optiplate from Packard) at a density of 30,000 cells per well. The following day, cells were induced to undergo apoptosis using 1 μM staurosporine dissolved in ISCOVE media (BRL/Gibco-Life technologies) without serum and phenol red at 37° C. (total volume here is 100 μl) for 5 hours. 50 μl of BRET buffer (PBS Ca^2+/Mg^2++glucose without aprotinin) and 50 μl of coelenterazine h (20 μM) were added to start the bioluminescence reaction. Light emissions were detected using the BRETCount (read length 1 sec for each filter, temperature 25° C.). Data was collected 10 minutes after the addition of coelenterazine h. The assay was done in quadruplicate.

[2] = test system: HeLa cells transfected with the GFP1:Caspase-3:Rluc sensor; test: apoptosis induction BRET assay, GFP1:Caspase-3:Rluc sensor; assay type: cell-based; conditions: 1 μM staurosporine, 5 hours, 37° C.; DeepBlueC; at time zero; ratio decreased
Description: (§1) PGFP1:caspase-3:Rluc DNAs and the original plasmid pGFP1::Rluc (without the caspase-3 site) were transfected into HeLa cell using LipofectAMINE (BRL/Gibco-Life technologies) in 100 mm dishes and 8 μg of plasmid DNA as described in the manufacturer's protocol. Twenty-four hours post-transfection transfected cells were harvested and distributed into 96-well microtiterplate (white Optiplate from Packard) at a density of 30 000 cells per well. The following day, cells were washed with PBS and were induced to undergo apoptosis by adding 100 μl of Iscove media without serum and phenol red (BRL/Life Technologies) containing staurosporine at a final concentration of 1 μM (+inducer; see FIG. 13) or 100 μl of Iscove alone (-inducer). Cells were incubated for 5 hours at 37° C. After this period, 50 μl of BRET buffer (PBS Ca^2+/Mg^2++glucose without aprotinin) and 50 μl of DeepBlueC (20 μM) were added to start the bioluminescence reaction. Total assay volume was 200 μl. Light emissions were detected using the BRETCount (read length of 1 sec. for each filter, SPC mode, temperature 25° C.).

[3] = test system: HeLa cells transfected with pGFP1::Rluc; test: apoptosis induction BRET assay, control construct without caspase-3 site; assay type: cell-based; conditions: 1 μM staurosporine, 5 hours
Description: as §1

[4] = molecular target: GFP1:caspase-3:Rluc fusion protein expressed in HeLa cells (pGFP1:caspase-3:Rluc) (Aequorea victoria; Renilla) [GFP: P42212]; test: cell-based or functional assay
[5] = molecular target: Rluc:caspase:EYFP fusion protein expressed in HeLa cells (pCEP4/Rluc-caspase-EYFP) (Renilla) (UniProt P27652); test: cell-based or functional assay
[6] = molecular target: Rluc:EYFP fusion protein, N-terminal His tag, purified from bacteria (pQE-32) (UniProt P27652)
[7] = molecular target: Rluc:enterokinase:EYFP fusion protein, N-terminal His tag, purified from bacteria (pQE-32) (UniProt P27652)
Sequence of Rluc:enterokinase:EYFP fusion protein, N-terminal His tag, purified from bacteria (pQE-32) (P27652 other isoform, or with tags, fused parts or gaps): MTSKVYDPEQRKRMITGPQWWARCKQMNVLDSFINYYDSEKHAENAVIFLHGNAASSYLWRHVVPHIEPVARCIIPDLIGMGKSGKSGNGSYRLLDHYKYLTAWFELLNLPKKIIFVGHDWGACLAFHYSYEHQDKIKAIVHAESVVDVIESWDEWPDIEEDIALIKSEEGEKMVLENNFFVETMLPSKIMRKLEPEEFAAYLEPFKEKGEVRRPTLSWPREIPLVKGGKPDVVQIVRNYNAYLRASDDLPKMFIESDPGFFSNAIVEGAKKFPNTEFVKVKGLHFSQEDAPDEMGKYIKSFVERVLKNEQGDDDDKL

Sequence of Rluc:EYFP fusion protein, N-terminal His tag, purified from bacteria (pQE-32) (P27652 whole entry, the tested form may be a part): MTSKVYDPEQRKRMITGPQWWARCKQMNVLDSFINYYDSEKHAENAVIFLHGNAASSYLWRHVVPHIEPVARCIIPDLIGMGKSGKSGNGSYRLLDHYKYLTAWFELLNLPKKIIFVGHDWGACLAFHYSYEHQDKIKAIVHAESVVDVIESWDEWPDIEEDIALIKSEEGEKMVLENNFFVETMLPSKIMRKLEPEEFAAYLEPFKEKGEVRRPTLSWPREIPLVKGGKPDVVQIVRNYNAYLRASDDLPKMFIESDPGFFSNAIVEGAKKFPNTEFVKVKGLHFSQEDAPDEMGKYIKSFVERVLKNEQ
Sequence of Rluc:caspase:EYFP fusion protein expressed in HeLa cells (pCEP4/Rluc-caspase-EYFP) (Renilla) (P27652 other isoform, or with tags, fused parts or gaps): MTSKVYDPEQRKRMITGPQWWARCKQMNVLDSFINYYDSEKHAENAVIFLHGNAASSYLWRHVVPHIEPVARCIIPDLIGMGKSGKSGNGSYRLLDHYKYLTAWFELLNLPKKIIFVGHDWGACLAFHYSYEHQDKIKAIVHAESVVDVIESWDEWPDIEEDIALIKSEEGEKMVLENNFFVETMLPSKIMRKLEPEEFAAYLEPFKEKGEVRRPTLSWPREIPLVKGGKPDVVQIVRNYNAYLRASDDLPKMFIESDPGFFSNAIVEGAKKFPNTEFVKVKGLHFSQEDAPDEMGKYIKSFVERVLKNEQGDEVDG

Compound: CN[C@@H]1C[C@H]2O[C@@](C)([C@@H]1OC)n1c3ccccc3c3c4c(c5c6ccccc6n2c5c31)C(=O)NC4 [staurosporine]
BRET ratio change [1]: 0.1 unit
BRET ratio change [2]: 0.72 unit
change in BRET ratio [3]: No change in BRET ratio

BRET ratio change in transfected HeLa cells after 5 hours of apoptosis induction by 1 uM staurosporine (unit (BRET ratio)) [4]: 0.72
BRET ratio change in transfected HeLa cells after 5 hours of apoptosis induction by 1 uM staurosporine (unit (BRET ratio)) [5]: 0.1
Compound: cellular caspase-3 (HeLa cells) (from UniProt P42574 29-277) (enzyme)

Compound: enterokinase enzyme (Invitrogen, Carlsbad, Calif.)
BRET ratio (emission at 550 nm / 470 nm) over four hours, purified protein with two units of enterokinase [6]: The ratios from the negative controls (Rluc and Rluc:EYFP) did not change over time when in the presence or absence of the enterokinase enzyme
BRET ratio (emission at 550 nm / 470 nm) over four hours, purified protein with two units of enterokinase [7]: Only the ratio for the construct Rluc:enterokinase:EYFP in the presence of the enterokinase enzyme decreased over time

— patent US20040214227A1, “Bioluminescence resonance energy transfer (bret) fusion molecule and method of use” (priority 1999, published 2004)
